The target of data set [1] is T1, Aptx full-length WT (Schizosaccharomyces pombe, UniProt O74859 1-232).
T1 sequence: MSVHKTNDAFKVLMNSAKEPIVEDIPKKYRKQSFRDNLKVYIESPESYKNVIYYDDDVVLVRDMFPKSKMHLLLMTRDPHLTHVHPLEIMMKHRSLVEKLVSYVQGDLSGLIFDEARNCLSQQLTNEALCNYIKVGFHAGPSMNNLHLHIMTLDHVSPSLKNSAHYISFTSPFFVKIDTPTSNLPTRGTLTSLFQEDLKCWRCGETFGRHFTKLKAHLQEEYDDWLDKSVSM
Kind of data set: fluorescence polarization. (Fluorescence polarisation rises when a labelled molecule tumbles more slowly, as on binding a larger partner.)

The target of data set [2] is T2, Aptxcat (HIT-Znf catalytic core) (Schizosaccharomyces pombe, UniProt O74859 30-232).
T2 sequence: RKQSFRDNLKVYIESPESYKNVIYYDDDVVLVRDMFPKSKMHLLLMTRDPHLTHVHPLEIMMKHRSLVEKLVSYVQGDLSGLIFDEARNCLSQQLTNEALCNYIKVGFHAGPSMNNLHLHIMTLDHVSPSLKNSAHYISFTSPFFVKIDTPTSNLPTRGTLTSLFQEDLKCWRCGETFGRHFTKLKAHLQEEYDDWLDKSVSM
Kind of data set: X-ray crystallography.

The target of data set [3] is T3, Aptx F65A (Schizosaccharomyces pombe, UniProt O74859 1-232, F65A).
T3 sequence: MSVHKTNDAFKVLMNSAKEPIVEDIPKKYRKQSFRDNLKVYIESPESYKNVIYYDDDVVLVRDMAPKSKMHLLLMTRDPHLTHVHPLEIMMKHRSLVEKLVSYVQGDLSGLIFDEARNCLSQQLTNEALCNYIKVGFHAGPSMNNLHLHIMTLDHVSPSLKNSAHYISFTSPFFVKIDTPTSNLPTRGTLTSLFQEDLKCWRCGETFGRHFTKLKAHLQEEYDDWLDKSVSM
Kind of data set: fluorescence polarization.

B1: 39-mer ssDNA (ssDNA)
DNA: CAGAGTCATAATATGCAGGTGCAGGTTATTCATGCTCGG
As a reminder, the Kd is a measure of binding affinity in units of concentration. A low value points to tighter binding. In data set [1], B1 returned a Kd of 330 nM.

B2: Crystallized duplex, strands A and C (dsDNA)
DNA 1: CCCTG
DNA 2: TATCGGAATCAGGG
modifications: 5'-OH and 3'-OH on both strands
Regarding B2, the binding result in data set [2] is reported as “binds”.

B3: SSB 39-mer (1-nt gap, 3'- and 5'-phosphates) (dsDNA)
DNA 1: CCGAGCATGAATAACCTGCACCTGCATATTATGACTCTG
DNA 2: CAGAGTCATAATATGCAGG
DNA 3: GCAGGTTATTCATGCTCGG
modifications: 3'-phosphate on S5; 5'-phosphate on S6
Turning to B3, the Kd worked out at 80 nM in data set [1] and 250 nM in data set [3].

B4: 39-mer dsDNA (dsDNA)
DNA 1: CAGAGTCATAATATGCAGGTGCAGGTTATTCATGCTCGG
DNA 2: CCGAGCATGAATAACCTGCACCTGCATATTATGACTCTG
Turning to B4, the affinity in data set [1], expressed as Kd, was 190 nM.

Values taken from paper PMC3210380.
